Tests used:
[1] = Tests of stability of compound 10 solutions stored at +4° C., assayed periodically with the troponin I kit; type: physicochemical; conditions: buffer solutions stored at +4° C.
Procedure: A compound according to the invention (compound 10) was diluted in water (C=2 mg/ml). From this “stock” solution, four “working” solutions S1, S2, S3 and S4 are obtained.
To carry out the various dilutions, a 0.1 M sodium succinate buffer solution (pH=6) containing Kathon (0.2%), Re gilait (0.05%) and 2 mM EDTA was used for solutions S1 (C=0.5 ng/ml) and S2 (C=1 ng/ml).
Solutions S3 (C=0.5 ng/ml) and S4 (C=1 ng/ml) were obtained by diluting the “stock” solution with phosphate buffer (KH2PO4/K2HPO4 pH=7.5) containing Kathon (0.2%), Régilait (0.05%) and 2 mM EDTA.
Solutions S1, S2, S3 and S4 were assayed, according to the protocol described in Example 2, on D0 (day of preparation of the solutions). The values obtained served as reference for monitoring stability.
Next, solutions S1, S2, S3 and S4 were stored at +4° C. and assayed periodically. During each series of assays, three “control solutions” were used. They are the freeze-dried troponin I control sera distributed in the assay measuring range. […] During each stability test, it was checked that each of the controls tested was obtained at its target concentration. This therefore made it possible to compare the concentrations obtained for the peptides during the various tests. […]

[2] = type: physicochemical
Procedure: This stability study was validated with the aid of compound 6 stored at -20° C. and used as reference. It was checked beforehand that compound 6 is stable when stored at -20° C. for at least 18 months.

Q: Which “Stability of the solutions” value [1] does the source give for “Ac-Asn Tyr Arg Ala Tyr Ala Thr Glu Pro His Ala Lys Lys Lys Ser Lys Gln Lys Met Gln Ala Met Met Gln Ala Leu Leu Gly Ala Arg Ala Lys Glu-NH2 (Ac-NYRAYATEPHAKKKSKQKMQAMMQALLGARAKE-NH2) [Compound 10, Ia with Ξ = Ac-NYRAYA-, Z = -AKKKSK-(QKMQ)1-AMMQA-, Ψ = -AKE-NH2]” here?
A: Its value is “excellent stability”.

Q: With “Ac-Gly Asn Tyr Arg Ala Tyr Ala Thr Glu Pro His Ala Lys Lys -NH-(CH2)5-CO-Ala Met Met Gln Ala Leu Leu Gly Ala Arg Ala Lys Glu-NH2 [Compound 6]” as the substance, how does the “Duration stable when stored at −20° C.” value [2] read?
A: The value was “at least 18 months”.
